Laboratory results: PMC10353892

Target: barrier-to-autointegration factor (BAF) (UniProt Q9VLU0)
Experiment: GFP affinity purification, mass spectrometry
Settings: reference: GFP-Ote wild type; sites S50,S54

binding against the reference: stronger
Substance: otefin (Ote; emerin) (from UniProt P20240) GFP-OteAA (S50A S54A)
